Measurements as given in patent publication US20090155251A1 (published 2009).

B1: ephrin B2 on tumor cells of human Kaposi's sarcoma biopsy sections (ligand, UniProt P52799 28-333, looked up)
chain: IVLEPIYWNSSNSKFLPGQGLVLYPQIGDKLDIICPKVDSKTVGQYEYYKVYMVDKDQADRCTIKKENTPLLNCAKPDQDIKFTIKFQEFSPNLWGLEFQKNKDYYIISTSNGSLEGLDNQEGGVCQTRAMKILMKVGQDASSAGSTRNKDPTRRPELEAGTNGRSSTTSPFVKPNPGSSTDGNSAGHSGNNILGSEVALFAGIASGCIIFIVIIITLVVLLLKYRRRHRKHSPQHTTTLSLSTLATPKRSGNNNGSEPSDIIIPLRTADSVFCPHYEKVSGDYGHPVYIVQEMPPQSPANIYYKV
notes: whole, on cells
B2: Ephrin B2-alkaline phosphatase (Ephrin B2-AP) fusion protein: Ephrin B2 ectodomain fused with placental alkaline phosphatase (ligand, human, UniProt P52799 28-229, looked up)
chain: IVLEPIYWNSSNSKFLPGQGLVLYPQIGDKLDIICPKVDSKTVGQYEYYKVYMVDKDQADRCTIKKENTPLLNCAKPDQDIKFTIKFQEFSPNLWGLEFQKNKDYYIISTSNGSLEGLDNQEGGVCQTRAMKILMKVGQDASSAGSTRNKDPTRRPELEAGTNGRSSTTSPFVKPNPGSSTDGNSAGHSGNNILGSEVALFA
notes: extracellular domain; Secreted reagent; also called B2EC-AP; B2ECAP; not shown: placental alkaline phosphatase of vector pAPTag2 (GenHunter)

Legend:
[1] = target: T1, Mouse EphB4/Fc (R&D Systems) (mouse, UniProt P54761 16-539, limits assumed); assay: immunofluorescence on frozen KS biopsy sections, 5 ug/ml EphB4/Fc
T1 construct: Bought reagent; also called EphB4/Fc fusion protein; not shown: Fc part, detected with anti-human Fc/IgG-FITC
T1 sequence (looked up): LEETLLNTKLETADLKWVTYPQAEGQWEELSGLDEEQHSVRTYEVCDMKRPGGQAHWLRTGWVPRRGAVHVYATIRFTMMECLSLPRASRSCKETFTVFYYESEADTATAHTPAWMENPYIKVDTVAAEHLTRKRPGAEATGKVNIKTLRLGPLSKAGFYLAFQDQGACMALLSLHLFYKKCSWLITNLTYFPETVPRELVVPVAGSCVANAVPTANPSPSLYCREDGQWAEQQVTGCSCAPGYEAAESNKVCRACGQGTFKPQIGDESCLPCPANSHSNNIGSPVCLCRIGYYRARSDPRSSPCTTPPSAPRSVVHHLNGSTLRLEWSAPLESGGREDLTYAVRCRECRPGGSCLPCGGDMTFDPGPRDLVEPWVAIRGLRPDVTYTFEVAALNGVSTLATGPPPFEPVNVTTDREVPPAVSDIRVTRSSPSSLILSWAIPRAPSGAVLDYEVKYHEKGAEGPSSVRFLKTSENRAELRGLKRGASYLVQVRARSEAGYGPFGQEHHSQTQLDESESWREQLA
Method: Immunofluorescence detection of EphrinB2 with EPHB4-Fc was done as follows. Frozen sections fixed in 4% paraformaldehyde and blocked with 20% FBS were incubated with 5 μg/ml EphB4/Fc (R&D Systems) for 1 h at RT. Sections were then incubated with 10 μg/ml rabbit anti-human IgG-FITC in PBS (Jackson ImmunoResearch Laboratories West Grove, Pa.) at RT for 1 hour. Nuclei were counterstained with DAPI and sections mounted as above. Human Fc (Jackson ImmunoResearch) was used as the negative control.

[2] = target: T2, B4EC-NT (soluble EphB4 extracellular domain without epitope or purification tags) (human, UniProt P54760 16-539); assay: B2EC-AP binding and competition assays on conditioned media of stable cell lines
T2 construct: extracellular domain; also called EphB4ECnt; B4ECv3NT
T2 sequence (looked up): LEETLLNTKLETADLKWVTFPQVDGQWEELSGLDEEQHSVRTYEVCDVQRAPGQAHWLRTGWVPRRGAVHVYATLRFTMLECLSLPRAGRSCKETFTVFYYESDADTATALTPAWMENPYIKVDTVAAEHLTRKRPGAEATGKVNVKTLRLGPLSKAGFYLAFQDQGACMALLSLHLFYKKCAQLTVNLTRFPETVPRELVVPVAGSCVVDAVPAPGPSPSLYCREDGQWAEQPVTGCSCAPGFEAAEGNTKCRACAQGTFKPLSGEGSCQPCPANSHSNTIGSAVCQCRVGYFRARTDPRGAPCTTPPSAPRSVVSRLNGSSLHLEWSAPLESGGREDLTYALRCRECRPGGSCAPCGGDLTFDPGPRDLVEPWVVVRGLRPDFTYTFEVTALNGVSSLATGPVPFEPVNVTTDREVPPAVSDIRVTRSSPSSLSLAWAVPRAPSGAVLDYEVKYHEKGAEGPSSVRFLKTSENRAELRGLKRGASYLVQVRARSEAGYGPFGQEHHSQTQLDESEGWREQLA

[3] = target: T3, B4ECv3 (soluble EphB4 extracellular domain with C-terminal V5 epitope tag and 6xHis tag) (human, UniProt P54760 16-537); assay: biochemical assays: Ni-NTA bead binding of B2-AP; inhibition in solution and cell based
T3 construct: also called EphB4ECv3; GCF2 (v.3)
T3 sequence: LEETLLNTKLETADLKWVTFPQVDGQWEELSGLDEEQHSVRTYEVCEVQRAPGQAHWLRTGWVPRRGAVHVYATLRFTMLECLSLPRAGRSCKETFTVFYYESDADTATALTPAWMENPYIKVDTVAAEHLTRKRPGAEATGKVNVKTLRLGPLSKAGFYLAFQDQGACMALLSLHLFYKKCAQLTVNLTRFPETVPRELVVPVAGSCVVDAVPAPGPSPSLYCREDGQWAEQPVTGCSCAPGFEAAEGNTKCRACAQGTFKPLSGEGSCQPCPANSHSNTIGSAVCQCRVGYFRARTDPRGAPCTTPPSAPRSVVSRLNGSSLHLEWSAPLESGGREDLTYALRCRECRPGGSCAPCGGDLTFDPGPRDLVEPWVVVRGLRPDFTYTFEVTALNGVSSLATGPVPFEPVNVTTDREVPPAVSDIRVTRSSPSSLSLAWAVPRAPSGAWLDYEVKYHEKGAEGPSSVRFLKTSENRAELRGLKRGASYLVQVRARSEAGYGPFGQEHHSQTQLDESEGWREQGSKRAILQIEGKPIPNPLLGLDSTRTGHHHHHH
Method: 10 μl of Ni-NTA-Agarose were incubated in microcentrifuge tubes with 50 μl of indicated amount of B4ECv3 diluted in binding buffer BB (20 mM Tris-HCl, 0.15 M NaCl, 0.1% bovine serum albumin pH 8) After incubation for 30 min on shaking platform, Ni-NTA beads were washed twice with 1.4 ml of BB, followed by application of 50 μl of B2-AP in the final concentration of 50 nM. Binding was performed for 30 min on shaking platform, and then tubes were centrifuged and washed one time with 1.4 ml of BB. Amount of precipitated AP was measured colorimetrically after application of PNPP.
Inhibition in solution. Different amounts of B4ECv3 diluted in 50 μl of BB were pre-incubated with 50 μl of 5 nM B2EC-AP reagent (protein fusion of Ephrin B2 ectodomain with placental alkaline phosphatase). After incubation for 1 h, unbound B2EC-AP was precipitated with 5,000 HEK293 cells expressing membrane-associated full-length EphB4 for 20 min. Binding reaction was stopped by dilution with 1.2 ml of BB, followed by centrifugation for 10 min. Supernatants were discarded and alkaline phosphatase activities associated with collected cells were measured by adding para-nitrophenyl phosphate (PNPP) substrate.
Cell based inhibition. B4ECv3 was serially diluted in 20 mM Tris-HCl, 0.15 M NaCl, 0.1% BSA, pH 8 and mixed with 5,000 HEK293 cells expressing membrane-associated full-length Ephrin B2. […]

[4] = target: T4, B4ECv3-FC (EphB4 extracellular domain fused to human IgG1 Fc) (human, UniProt P54760 16-539); assay: biochemical assays: Protein A-agarose and nitrocellulose binding of B2EC-AP; inhibition assays (FIGS. 6-7)
T4 construct: extracellular domain; also called B4EC-FC; not shown: Fc portion of human IgG1 (pIG vector)
T4 sequence (looked up): T2 sequence (looked up)
Method: Protein A-agarose based assay. 10 μl of Protein A-agarose were incubated in Eppendorf tubes with 50 μl of indicated amount of B4EC-FC diluted in binding buffer BB (20 mM Tris-HCl, 0.15 M NaCl, 0.1% BSA pH 8). After incubation for 30 min on shaking platform, Protein AAagarose beads were washed twice with 1.4 ml of BB, followed by application of 50 μl of B2ECAP reagent at the final concentration of 50 nM. Binding was performed for 30 min on shaking platform, and then tubes were centrifuged and washed once with 1.4 ml of BB. Colorimetric reaction of precipitated AP was measured after application of PNPP (FIG. 6).
Nitrocellulose based assay. B4EC-FC was serially diluted in 20 mM Tris-HCl, 0.15 M NaCl, 50 μg/ml BSA, pH 8. 2 μl of each fraction were applied onto nitrocellulose strip and spots were dried out for 3 min. Nitrocellulose strip was blocked with 5% non-fat milk for 30 min, followed by incubation with 5 nM B2EC-AP reagent. After 45 min incubation for binding, nitrocellulose was washed twice with 20 mM Tris-HCl, 0.15 M NaCl, 50 μg/ml BSA, pH 8 and color was developed by application of alkaline phosphatase substrate Sigma Fast (Sigma).

[5] = target: T5, B4-GCF2 (recombinant soluble EphB4 extracellular domain: globular, Cys-rich and two FNIII domains, C-terminal … (human, UniProt P54760 16-537)); assay: Ephrin B2-AP binding to B4 proteins immobilized on Ni resin or nitrocellulose membrane
T5 construct: Expressed in HEK293T, glycosylated
T5 sequence: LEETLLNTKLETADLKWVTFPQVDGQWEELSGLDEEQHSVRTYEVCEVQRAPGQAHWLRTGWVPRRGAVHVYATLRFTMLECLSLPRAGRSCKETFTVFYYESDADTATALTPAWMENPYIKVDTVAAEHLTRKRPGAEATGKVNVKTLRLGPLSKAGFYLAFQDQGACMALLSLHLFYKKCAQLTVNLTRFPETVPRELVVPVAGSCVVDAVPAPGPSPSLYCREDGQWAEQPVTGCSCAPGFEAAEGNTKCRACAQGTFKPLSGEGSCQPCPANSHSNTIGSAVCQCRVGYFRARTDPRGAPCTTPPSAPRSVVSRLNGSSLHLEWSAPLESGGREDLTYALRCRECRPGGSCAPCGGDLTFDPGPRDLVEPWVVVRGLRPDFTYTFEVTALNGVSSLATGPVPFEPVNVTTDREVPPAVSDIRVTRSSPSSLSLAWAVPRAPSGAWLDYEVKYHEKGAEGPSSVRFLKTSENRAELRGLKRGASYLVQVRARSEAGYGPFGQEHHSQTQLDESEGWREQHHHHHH
Method: (§1) To confirm ability of the purified recombinant proteins to bind Ephrin B2, they were tested in an in vitro binding assay. As expected, GC, GCF1 and GCF2, but not CF2 are binding the cognate ligand Ephrin B2 as confirmed by interaction between Ephrin B2—alkaline phosphatase (Ephrin B2-AP) fusion protein with the B4 proteins immobilized on Ni²⁺-resin or on nitrocellulose membrane (FIG. 17).
(§2) To test ligand binding properties of the proteins, 10 μl of Ni-NTA-Agarose (Qiagen) were incubated in microcentrifuge tubes with 10-500 ng sample of a B4-ECD protein diluted in 0.5 ml of binding buffer BB (20 mM Tris-HCl, 0.15 M NaCl, 0.1% bovine serum albumin, pH 8). After incubation for 30 min on shaking platform, Ni-NTA beads were washed twice with 1.4 ml of BB, followed by addition of B2-AP fusion protein at concentration of 50 nM. Binding was performed for 30 min on a shaking platform. Tubes were centrifuged and washed once with 1.4 ml of BB. Amount of precipitated AP was measured colorimetrically at 420 nm after application of p-nitrophenyl phosphate (PNPP) and incubation for 5-30 min.

[6] = target: T6, B4-CF2 (EphB4 extracellular domain with deleted globular domain: Cys-rich and two FNIII domains, V5 and 6xHis … (human, UniProt P54760 16-537)); assay: as above
T6 sequence: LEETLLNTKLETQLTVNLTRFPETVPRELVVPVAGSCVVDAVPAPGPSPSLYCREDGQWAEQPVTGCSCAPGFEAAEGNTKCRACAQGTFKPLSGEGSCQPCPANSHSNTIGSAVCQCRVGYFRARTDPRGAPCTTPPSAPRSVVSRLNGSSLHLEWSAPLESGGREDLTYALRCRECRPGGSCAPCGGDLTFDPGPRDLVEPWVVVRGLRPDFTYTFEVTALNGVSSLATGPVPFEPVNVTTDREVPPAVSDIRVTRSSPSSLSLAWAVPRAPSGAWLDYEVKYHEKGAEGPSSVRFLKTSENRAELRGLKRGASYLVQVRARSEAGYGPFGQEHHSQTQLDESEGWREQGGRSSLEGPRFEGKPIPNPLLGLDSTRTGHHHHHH
Method: as §1, §2

[7] = target: T7, B4-GC (EphB4 globular domain + Cys-rich domain, C-terminal 6xHis) (human, UniProt P54760 16-326); assay: as above
T7 construct: Printed mature EphB4 part counts 311 residues, the text says 1-312; also called B4EC-GC
T7 sequence: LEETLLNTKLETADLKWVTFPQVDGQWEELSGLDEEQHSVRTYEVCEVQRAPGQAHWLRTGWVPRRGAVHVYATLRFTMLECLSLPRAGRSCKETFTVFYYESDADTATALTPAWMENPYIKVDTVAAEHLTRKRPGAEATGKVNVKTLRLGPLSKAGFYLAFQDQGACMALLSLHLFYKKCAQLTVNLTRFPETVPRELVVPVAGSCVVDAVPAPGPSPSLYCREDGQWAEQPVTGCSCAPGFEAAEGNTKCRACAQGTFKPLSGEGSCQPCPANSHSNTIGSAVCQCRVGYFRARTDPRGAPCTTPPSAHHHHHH
Method: as §1, §2

Binder	binding result [1]	binding result [2]	binding result [3]	binding result [4]	binding result [5]	binding result [6]	binding result [7]
B1	binds	–	–	–	–	–	–
B2	–	binds	binds	binds	binds	no binding (tested: 50 nM B2-AP; 10-500 ng B4-ECD protein)	binds
